Target: TmMre11 (TM1635) truncated construct, residues 1-324 (Thermotoga maritima) (UniProt Q9X1X0)
Experiment: crystal structure

- stoichiometry N: 2
Substance: TmMre11 (TM1635) truncated construct, residues 1-324 (from UniProt Q9X1X0 1-324) (domain or fragment)

— article PMC2839085
